This note sets out measurements from patent US20210221882A1 (Sanofi, published 2021).

Common to all, as to assay: cell-based or functional assay
In test [1] the target is T1, Recombinant human IL-4 (human, UniProt P05112 25-153).
T1 sequence (looked up): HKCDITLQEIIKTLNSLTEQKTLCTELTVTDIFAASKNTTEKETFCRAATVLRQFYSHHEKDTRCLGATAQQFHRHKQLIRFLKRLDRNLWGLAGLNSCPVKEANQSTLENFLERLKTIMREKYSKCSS

In test [2] the target is T1, Recombinant human IL-4. The source holds these as a separate data set.
Test [3] addresses T1, Recombinant human IL-4. This is another data set of the same source.
For test [4], the target named is T2, cynomolgus monkey IL-4 (cynomolgus monkey, UniProt P79339 25-153, limits assumed).
T2 sequence (looked up): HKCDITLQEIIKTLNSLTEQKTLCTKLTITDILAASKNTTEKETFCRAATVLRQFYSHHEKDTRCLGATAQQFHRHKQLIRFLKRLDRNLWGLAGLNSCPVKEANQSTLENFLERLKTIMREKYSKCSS

B1: huTBTI3_2_1 (bispecific antibody)
VH: EVQLKESGPGLVAPGGSLSITCTVSGFSLTDSSINWVRQPPGKGLEWLGMIWGDGRIDYADALKSRLSISKDSSKSQVFLEMTSLRTDDTATYYCARDGYFPYAMDFWGQGTSVTVSSGGGGSGGGGSQVQLQQSGPELVKPGASVKISCKASGYSFTSYWIHWIKQRPGQGLEWIGMIDPSDGETRLNQRFQGRATLTVDESTSTAYMQLRSPTSEDSAVYYCTRLKEYGNYDSFYFDVWGAGTLVTVSS
VL: DIVLTQSPASLAVSLGQRATISCRASESVDSYGQSYMHWYQQKAGQPPKLLIYLASNLESGVPARFSGSGSRTDFTLTIDPVQAEDAATYYCQQNAEDSRTFGGGTKLEIKGGGGSGGGGSDIQMTQSPASLSVSVGDTITLTCHASQNIDVWLSWFQQKPGNIPKLLIYKASNLHTGVPSRFSGSGSGTGFTLTISSLQPEDIATYYCQQAHSYPFTFGGGTKLEIK
Consider B1, for which, in test [1], the “IC50, IL-4/IL-13-stimulated IL-6 release from LL97A IPF lung fibroblasts (combination of 15 ng/ml rhIL-13 plus 5 ng/ml rhIL-4)” value came out at 7.8 nM; the “IC50, IL-4/IL-13-stimulated eotaxin release from LL97A IPF lung fibroblasts (combination of 15 ng/ml rhIL-13 plus 5 ng/ml rhIL-4)” value amounted to 3.8 nM; the “IC50, IL-4 and IL-13 induced LOX gene expression in IPF pulmonary fibroblasts (Taqman)” value lay in the range of 3 to 6 nM. Moreover, in test [2], the “IC50, inhibition of IL-4-induced Stat6 phosphorylation in human blood monocytes, donor 217” value was determined as 0.78 nM; the “IC50, inhibition of IL-4-induced Stat6 phosphorylation in human blood monocytes, donor 229” value was found to be 0.73 nM; the “IC50, inhibition of IL-4-induced Stat6 phosphorylation in human blood monocytes, donor 245” value stood at 1.32 nM. The “Mean IC50, inhibition of TF-1 cell proliferation induced by human IL-4” value in test [3] came out at 2.03 nM. Moreover, the “Mean IC50, inhibition of TF-1 cell proliferation induced by cynomolgus IL-4” value in test [4] is 0.53 nM.
